Source: article PMC13639016

Target: QatB (Escherichia coli NCTC9009)
Assay: SEC-MALS

Substance | stoichiometry N
QatC (enzyme) | 1
QatD (enzyme) | 1
